Measurements as given in the supplement of paper PMC9170038.

Test system: MS2 coat protein
Experiment: apparent KD of MS2 coat protein; designed switch direction (-1 OFF switch, 1 ON switch): -1; higher = weaker reporter binding
Procedure, shortened: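 The reported apparent KD is a per-design median over clusters, from curve fits of normalised cluster fluorescence. Protein titrations used SNAP-549-labelled MS2 coat protein, doubled from 0.7 or 1.5 nM to 3 µM, in Tris-HCl pH 7.5 buffer with KCl, MgCl2, BSA, DTT, tRNA and Tween-20, with no input, 200 uM small-molecule ligand, or an oligonucleotide input. The RNA switches were transcribed on Illumina chips by stalled E. coli RNA polymerase.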

[1] = Eterna round: R95, input ligand: microRNA oligo, concentration not stated
[2] = Eterna round: R95, input ligand: FMN 200 uM
[3] = Eterna round: R95, input ligand: none
[4] = input ligand: microRNA oligo, concentration not stated

Sequence: UUCAGACAUGAGGAUCACCCAUGUGAGGAUAUGAUGCGAUCGUCGAAAGACGAUAGCAUCAGAAGGCACAAAUG [Fiskers Ex 1 - 18] (puzzle: Exclusion 1)
- apparent KD of MS2 coat protein [1]: 114 nM

Sequence: AGCUAGUCAGGAUAUUCUAAAUAUUACAUGAGGAUCACCCAUGUGAAUGGACAAGGGUGUGAAGAAGGGACUAGCG [Omei Ex5 A12] (Eterna round: R97, puzzle: Exclusion 5)
- apparent KD of MS2 coat protein (input ligand: FMN 200 uM): 262 nM
- apparent KD of MS2 coat protein (input ligand: none): 959 nM

Sequence: CGCGACUCAGGAUAUACAUGAGGAUCACCCAUGUGGAACGACUGGGUCGAUAAAAGGUGUAGAAGGGAGGAAAA [Invebies] (puzzle: Exclusion 3)
- apparent KD of MS2 coat protein [2]: 15.4 nM
- apparent KD of MS2 coat protein [1]: 12.6 nM
- apparent KD of MS2 coat protein [3]: 15.4 nM

Sequence: GCACGACAUCAGGAUAUGACUAGCUUCGGCUAGUCAGAAGGGAUGACAUGAGGAUCACCCAUGUGAUCACGUGC [E6/2-B1] (Eterna round: R97, puzzle: Exclusion 6)
- apparent KD of MS2 coat protein (input ligand: FMN 200 uM): 122 nM
- apparent KD of MS2 coat protein (input ligand: none): 91.8 nM

Sequence: ACUUAUUGAGGAUAUACAUUGAUUAACAUGAGGAUCACCCAUGUACAAACAUGUAUUUAUGUAGAAGGCAGAAGAA [JR_Ex5_Sub067] (Eterna round: R97, puzzle: Exclusion 5)
- apparent KD of MS2 coat protein (input ligand: FMN 200 uM): 14.4 nM
- apparent KD of MS2 coat protein (input ligand: none): 13.4 nM

Sequence: UGAUCACAUGAGGAUCACCCAUGUCAGGAUAUCGUCACUGGAGCUGCGGCUCCAGUGACGAGAAGGGACAUAAU [E1/3-A3] (Eterna round: R97, puzzle: Exclusion 1)
- apparent KD of MS2 coat protein (input ligand: FMN 200 uM): 50.8 nM
- apparent KD of MS2 coat protein (input ligand: none): 242 nM

Sequence: UUUAAUUUUUUUUUUUUACAAGCUUUUUGCUCGUCUUAUACAUGAGGAUCACCCAUGUAGAUGGGAAGUAAAUUAUC [JMF 53] (puzzle: Sensor v3, turn-off variant 2)
- apparent KD of MS2 coat protein [2]: 24.7 nM
- apparent KD of MS2 coat protein [1]: 200 nM
- apparent KD of MS2 coat protein [3]: 24.5 nM

Sequence: GCAGCGUAUGUAGGAUAUCGGUCAGUUUCUGAUCGAGAAGGACAUGAGGAUCACCCAUGUUAUUUCAUGCGUGAGCAUGGCUGC [JL ENG1 3.73] (Eterna round: R96, puzzle: Exclusion NG 1)
- apparent KD of MS2 coat protein (input ligand: FMN 200 uM): 271 nM
- apparent KD of MS2 coat protein [4]: 31 nM
- apparent KD of MS2 coat protein (input ligand: none): 37.1 nM

Sequence: ACAUUCAGAGGAUAUGCGCAUAGAUAAGACUUUUUUUUUUAACAUGAGGAUCACCCAUGUAGAAGGCUGUAACC [Ex2 #48] (Eterna round: R97, puzzle: Exclusion 2)
- apparent KD of MS2 coat protein (input ligand: FMN 200 uM): 23.8 nM
- apparent KD of MS2 coat protein (input ligand: none): 24.3 nM

Sequence: ACAUGAGGAUCACCCAUGUGAAAAGAAUGGCUGACACAGAGUUAGGAUAUGCGUGCAUAUCUAACGCAGAAGGGACAUGACUGG [Deportation 82 - Jieux - Exclusion NG 3] (Eterna round: R96, puzzle: Exclusion NG 3)
- apparent KD of MS2 coat protein (input ligand: FMN 200 uM): 33.7 nM
- apparent KD of MS2 coat protein [4]: 33.9 nM
- apparent KD of MS2 coat protein (input ligand: none): 30.2 nM

Sequence: GCACGGAGUGCAGGAUAUCUGUGCGAUUAGCUCAGAGAAGGGCACAUGAGGAUCACCCAUGUGUAUAAAACACAAAAUCCGUGC [Eli exng1 - 066] (Eterna round: R96, puzzle: Exclusion NG 1)
- apparent KD of MS2 coat protein (input ligand: FMN 200 uM): 22.1 nM
- apparent KD of MS2 coat protein [4]: 10.2 nM
- apparent KD of MS2 coat protein (input ligand: none): 14.5 nM

Sequence: UUUUAACAUGAGGAUCACCCAUGUGAGGAUAUCGAAAUUUAUAUUAAUAUUUAUUAAUCGAGAAGGCACAUUUU [JMF 60] (puzzle: Exclusion 1)
- apparent KD of MS2 coat protein [1]: 100 nM

Sequence: UGCCCAGCAGGAUAUACAUGAGGAUCACCCAUGUCGAUUCAGUACGACUUAGUGCAACGUAGAAGGGCUGGGCC [Eternabot (L1) Solution 84] (Eterna round: R97, puzzle: Exclusion 3)
- apparent KD of MS2 coat protein (input ligand: FMN 200 uM): 405 nM
- apparent KD of MS2 coat protein (input ligand: none): 39.5 nM

Sequence: AAAUACAAGUAAGGAUUCUACAUGAGGAUCACCCAUGUGCUCGUCUUAUAAAGUACUAUCACGAAAGUGAUAGUACA [Sensor 3, v1 - 38] (puzzle: Sensor v3, turn-off variant 1)
- apparent KD of MS2 coat protein [2]: 22 nM
- apparent KD of MS2 coat protein [1]: 190 nM
- apparent KD of MS2 coat protein [3]: 26.2 nM

Sequence: AAUUUAACAUAGGAUAUCGAAUUUAUCAUUUAACGAGAAGGAUGAACAUGAGGAUCACCCAUGUGGUAUCAUGG [Mat - Exclusion 6 - JL Mod - D2] (puzzle: Exclusion 6)
- apparent KD of MS2 coat protein [2]: 155 nM
- apparent KD of MS2 coat protein [1]: 373 nM
- apparent KD of MS2 coat protein [3]: 180 nM
